Source: patent US20200397913A1, “AXL-SPECIFIC ANTIBODY-DRUG CONJUGATES FOR CANCER TREATMENT” (GENMAB A/S, priority 2015, published 2020)
Residue numbers refer to the chain shown, from its start. Numbers in names are those of the source. Marks after values point to notes of the source that are not given here.

B1: IgG1-AXL-726-M101L: point mutant of IgG1-AXL-726, VH SEQ ID NO:32, VL SEQ ID NO:33 (antibody, V domains shown)
VH: QVQLQQWGAGLLKPSETLSLTCAIDGGSFSGYYWSWIRQPPGKGLEWIGEISHSGRTNYNPSLKSRVTISIDTSKNQFSLKLSSVAAADTAVYYCARFITLIRGAIITHFDYWGQGALVTVSS
VL: DIQMTQSPSSLSASVGDRVTITCRASQGISSWLAWYQQKPEKAPKSLIYAASSLQSGVPSRFSGSGSGTDFTLTISSLQPEDFATYYCQQYHSYPYTFGQGTKLEIK
modifications: homo sapiens
B2: IgG1-AXL-148: human IgG1,κ anti-AXL antibody, VH SEQ ID NO:5, VL SEQ ID NO:6; Ig2 domain binding (antibody, V domains shown)
VH: EVQLLESGGGLVQPGGSLRLSCAASGFTFSSYAMTWVRQAPGKGLEWVSAISISGGSTFYADSVKGRFTISRDNSKNTLYLQMNSLRAEDTAVYYCRGYSGYVYDAFDFWGQGTMVTVSS
VL: B1 VL with S31N, H92N, Y96L, Q100G, L104V
modifications: homo sapiens

Legend:
SKMEL147 tumors = assay: SKMEL147 melanoma xenograft model; assay type: in vivo, NMRI nude mice; conditions: 4 mg/kg i.v. on day 12 and day 19 after tumor cell injection
[1] = system: MDA-MB-231 and Calu-1 cells; assay: Internalization of cell surface bound HuMab-AXL by flow cytometry; assay type: cell-based, human; conditions: 1 hour 4° C, then overnight 37° C versus 4° C
Procedure: Internalization of cell surface bound HuMab-AXL antibodies to MDA-MB-231 and Calu-1 cells (human lung carcinoma cell line; ATCC, catalognumber HTB-54) was evaluated by flow cytometry. 50,000 cells were seeded in 96-well tissue culture plates and allowed to attach for 6 hrs at 37° C. Plates were incubated at 4° C. for 30 minutes before incubation with serial dilutions of AXL-antibodies (final concentration range 0.0032-10 μg/mL) at 4° C. for 1 hour. Subsequently, the medium was replaced by tissue culture medium without antibody and cells were incubated overnight (16-18 hours) at 37° C. or 4° C. […] Finally, cells were washed twice in PBS/0.1% BSA/0.02% azide, resuspended in 120 μL PBS/0.1% BSA/0.02% azide and analyzed on a FACS Cantoll (BD Biosciences).
(§1) Binding curves were analyzed using non-linear regression (sigmoidal dose-response with variable slope) using GraphPad Prism V5.04 software (GraphPad Software, San Diego, Calif., USA).

A431 cells = assay: Antibody-dependent cell-mediated cytotoxicity (51Cr release); assay type: cell-based, human; conditions: concentrations up to 10 μg/mL
Procedure: The ability of anti-AXL antibodies to induce ADCC of A431 epidermoid carcinoma cells was determined as explained below. As effector cells, peripheral blood mononuclear cells from healthy volunteers (UMC Utrecht, The Netherlands) were used.
A431 cells were collected (5×10^6 cells) in culture medium (RPMI 1640 culture medium supplemented with 10% fetal calf serum (FSC)), to which 100 μCi ^51Cr (Chromium-51; Amersham Biosciences Europe GmbH, Roosendaal, The Netherlands) had been added, and the mixture was incubated in a 37° C. water bath for 1 hour (hr) while shaking. After washing of the cells (twice in PBS, 1200 rpm, 5 min), the cells were resuspended in RPMI1640/10% FSC and counted by trypan blue exclusion. Cells were diluted to a density of 1×10^5 cells/mL.
Peripheral blood mononuclear cells (healthy volunteers, UMC Utrecht, Utrecht, The Netherlands) were isolated from 45 mL of freshly drawn heparin blood by Ficoll (Bio Whittaker; lymphocyte separation medium, cat 17-829E) according to the manufacturer's instructions. After resuspension of cells in RPMI1640/10% FSC, cells were counted by trypan blue exclusion and diluted to a density of 1×10^7 cells/mL.
50 μl of ^51Cr-labeled targets cells were pipetted into 96-well plates, and 50 μl of antibody were added, diluted in RPMI1640/10% FSC (3-fold dilutions at final concentrations range 0.01-10 μg/mL). Cells were incubated (room temperature (RT), 15 min), and 50 μl effector cells were added, resulting in an effector to target ratio of 100:1 (for determination of maximal lysis, 100 μl 5% Triton-X100 was added instead of effector cells; for determination of spontaneous lysis, 50 μL target cells and 100 μL RPMI1640/10% FSC were used). Cells were incubated overnight at 37° C. and 5% CO2. After spinning down cells (1200 rpm, 10 min), 70 μL of supernatant was harvested into micronic tubes, and counted in a gamma counter. The percentage specific lysis was calculated as follows:
% specific lysis=(cpm sample−cpm target cells only)/(cpm maximal lysis−cpm target cells only),
wherein cpm is counts per minute.

CV1664 tumors = assay: Cervical cancer PDX model CV1664; assay type: in vivo, BALB/c nude mice
Procedure: Inoculation of tumor fragments into BALB/c nude mice and randomization was performed as described in Example 21.

ES0195 tumors = assay: Esophageal cancer PDX model ES0195; assay type: in vivo, BALB/c nude mice; conditions: 20 mg/kg i.p. at day 0, 7 and 14
Procedure: Tumor fragments from donor mice bearing patient-derived esophageal xenografts (ES0195) were used for inoculation into BALB/c nude mice. Each mouse was inoculated subcutaneously at the right flank with one tumor fragment (2-3 mm in diameter) and tumors were allowed to grow until the tumor volume was about 150 mm^3. […] The antibodies and ADCs were dosed intravenously (i.v.) at 4 mg/kg at day of randomization (day 0) and day 7. Paclitaxel was dosed intra-peritoneally (i.p.) at 20 mg/kg at day 0, 7, and 14. Tumor volumes (mm^3) were monitored twice weekly and were calculated from caliper (PLEXX) measurements as: 0.52×(length)×(width)^2.

[2] = target: T1, AXLECDHis (extracellular domain of human AXL) (Homo sapiens, UniProt P30530); assay: Binding affinity by Bio-Layer Interferometry (Octet); conditions: soluble AXLECDHis, 30° C, 1:1 model
T1 construct: the extracellular domain (ECD) of human AXL (aa 1-447) with a C-terminal His tag (AXLECDHis); His tag (C); made in house; host or cells: HEK-293F

[3] = target: T2, human AXL with a mouse ECD (Mus musculus, UniProt Q00993, A791T/A867T/C878S/D603E/D853E/E609A/F637Y/G606S/G869S/H824Y/L452V/L825P/L872Q/P881A/R785Q/R828P/S823G/S856P/S873P/T871A/V766A); assay: Flow cytometry binding to HEK293T cells transfected with human AXL with mouse ECD; conditions: 0.0024-10 μg/mL
T2 construct: aa 1-441); expressed in transfected cells; host or cells: HEK293T

human AXL = target: T3, human AXL (Homo sapiens, UniProt P30530); assay: Flow cytometry binding to HEK293T cells transfected with full length human AXL; conditions: at least 3 experiments
T3 construct: expression constructs for full length human AXL; expressed in transfected cells; host or cells: HEK293T

[4] = target: T4, human AXL with a cynomolgus monkey extracellular domain (ECD) (Homo sapiens, UniProt P30530, P441T/S191N/S285L/T105A/T112A/T125N/T443A); assay: Flow cytometry binding to HEK293T cells transfected with human AXL with cynomolgus ECD; conditions: at least 3 experiments
T4 construct: aa 1-447); expressed in transfected cells; host or cells: HEK293T

PAXF1657 tumors = assay: PAXF1657 pancreas cancer PDX model; assay type: in vivo, NMRI nu/nu mice; conditions: dose not stated in the sentence (FIG. 10B, 10C)
Procedure: Human pancreas tumor tissue was subcutaneously implanted in the left flank of 5-7 weeks old female NMRI nu/nu mice. […] At day of randomization (day 0), the 3 ADCs were dosed intravenously (i.v.) at either 4 mg/kg or 2 mg/kg, and the control group received a single dose of IgG1-b12 (4 mg/kg). Tumor volumes (mm^3) were monitored twice weekly and were calculated from caliper (PLEXX) measurements as: 0.52×(length)×(width)^2.

[5] = target: Gas6 binding to AXL on A431 cells (Homo sapiens, UniProt P30530); assay: Gas6 binding to A431 cells pre-incubated with AXL antibodies; design: endogenous in cells; host or cells: A431; conditions: pre-incubation with 10 μg/mL antibody; control antibody b12
Procedure: Alternatively, A431 cells were pre-incubated with 10 μg/mL AXL antibodies (15 minutes, 4° C.) to assess if the AXL ligand Gas6 could still bind in presence of AXL antibodies. […] After washing three times in PBS/0.1% BSA/0.02% azide, cells were incubated with mouse anti-Gas6 IgG2a (R&D Systems; cat no. MAB885) at 4° C. for 30 min. After washing three times in PBS/0.1% BSA/0.02% azide, cells were incubated with FITC-labelled goat anti-mouse IgG (Dako, Heverlee, Belgium; cat no. F049702) at 4° C. for 30 min in the dark. Next, cells were washed twice in PBS/0.1% BSA/0.02% azide, resuspended in 120 μL PBS/0.1% BSA/0.02% azide and analyzed on a FACS Cantoll (BD Biosciences).
as §1
Therefore, binding of Gas6 to A431 cells that had been pre-incubated with 10 μg/mL AXL antibodies was tested as described in Example 2.

[6] = target: T5, human AXL transiently expressed by HEK-293F cells (Homo sapiens, UniProt P30530); assay: Homogeneous antigen specific screening assay (FMAT); conditions: binding to human AXL on HEK-293F cells
T5 construct: HEK-293F cells transiently expressing full length human AXL; expressed in transfected cells; host or cells: HEK-293F

AXL on A431 cells = target: T6, AXL on A431 cells (Homo sapiens, UniProt P30530); assay: Antibody binding to A431 cells with or without Gas6 pre-incubation
T6 construct: AXL-positive A431 cells were incubated; endogenous in cells; host or cells: A431

T2 sequence (Q00993 19-888 with the stated changes): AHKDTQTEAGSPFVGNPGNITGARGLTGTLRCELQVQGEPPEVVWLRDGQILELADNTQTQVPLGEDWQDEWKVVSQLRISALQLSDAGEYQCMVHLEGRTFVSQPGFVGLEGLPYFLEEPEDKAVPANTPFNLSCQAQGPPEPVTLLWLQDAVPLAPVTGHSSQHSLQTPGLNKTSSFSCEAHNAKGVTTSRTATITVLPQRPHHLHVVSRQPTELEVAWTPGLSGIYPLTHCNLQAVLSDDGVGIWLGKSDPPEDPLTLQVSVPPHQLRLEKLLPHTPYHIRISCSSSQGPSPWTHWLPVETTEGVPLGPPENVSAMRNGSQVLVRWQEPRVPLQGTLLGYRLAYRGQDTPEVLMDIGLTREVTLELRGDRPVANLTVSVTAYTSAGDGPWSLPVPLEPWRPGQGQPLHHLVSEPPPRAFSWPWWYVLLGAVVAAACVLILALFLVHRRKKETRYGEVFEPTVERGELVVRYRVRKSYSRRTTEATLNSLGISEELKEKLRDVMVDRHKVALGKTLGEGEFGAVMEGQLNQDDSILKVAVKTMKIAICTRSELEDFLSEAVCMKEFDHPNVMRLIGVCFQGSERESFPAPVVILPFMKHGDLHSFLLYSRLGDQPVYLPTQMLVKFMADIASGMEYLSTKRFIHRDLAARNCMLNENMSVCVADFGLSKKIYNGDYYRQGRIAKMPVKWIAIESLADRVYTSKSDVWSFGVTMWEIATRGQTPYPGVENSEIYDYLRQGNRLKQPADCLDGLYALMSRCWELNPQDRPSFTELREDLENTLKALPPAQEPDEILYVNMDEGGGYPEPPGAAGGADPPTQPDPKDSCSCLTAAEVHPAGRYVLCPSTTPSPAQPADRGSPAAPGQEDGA

Molecule | anti-tumor activity (SKMEL147 tumors) | internalization of membrane-bound antibody [1] | induction of ADCC (A431 cells) | anti-tumor activity (CV1664 tumors; 4 mg/kg at day 0 and 7) | anti-tumor activity (CV1664 tumors; 20 mg/kg intraperitoneally at day 0 and 7) | anti-tumor activity (ES0195 tumors) | Kdis [2] [s⁻¹] | Kon [2] [M⁻¹ s⁻¹] | binding to AXL with a mouse ECD [3] | Binding EC50 human AXL Average (s.d.) (human AXL) | Binding EC50 cynomolgus AXL Average (s.d.) [4] | anti-tumor activity (PAXF1657 tumors) | Gas6 binding: Maximal binding in presence of AXL antibodies (% of binding in presence of control antibody) [5] [%] | Maximal binding [6] [Arbitrary units] | Antibody binding to A431 cells: EC50 w/o Gas6 mean (s.d.) (AXL on A431 cells; no Gas6 pre-incubation) | Antibody binding to A431 cells: EC50 in presence of Gas6 mean (s.d.) (AXL on A431 cells; pre-incubation with 10 μg/mL Gas6)
IgG1-AXL-107: human IgG1,κ anti-AXL antibody, VH SEQ ID NO:1, VL SEQ ID NO:2; Ig1 domain binding | did not show tumor growth inhibition | internalize | did not induce significant ADCC | only induced minor inhibition of tumor growth | – | – | – | – | – | – | – | – | – | – | – | –
CC(=O)O[C@H]1C(=O)[C@@]2(C)[C@H]([C@H](OC(=O)c3ccccc3)[C@]3(O)C[C@H](OC(=O)[C@H](O)[C@@H](NC(=O)c4ccccc4)c4ccccc4)C(C)=C1C3(C)C)[C@]1(OC(C)=O)CO[C@@H]1C[C@@H]2O [paclitaxel, reference compound] | – | – | – | – | induced partial tumor regression | tumor growth inhibition | – | – | – | – | – | – | – | – | – | –
B1 | – | internalize | did not induce significant ADCC | – | – | – | 6.9e-05 | 210000 | not detectable | 0.184 (0.117) μg/mL | 0.250 (0.066) μg/mL | – | – | – | – | –
B2 | – | internalize | did not induce significant ADCC | – | – | – | 0.0044 | 230000 | not detectable | 0.094 (0.059) μg/mL | 0.152 (0.080) μg/mL | did not result in anti-tumor activity | 106 | 3499 | 0.11 (0.13) μg/mL | 0.20 (0.30) μg/mL
